Assay results from paper PMC4333417 (Nucleic Acids Research, 2015).

T1: Sco5333 (Streptomyces coelicolor, UniProt Q9ADD4 1-301)
T1 sequence: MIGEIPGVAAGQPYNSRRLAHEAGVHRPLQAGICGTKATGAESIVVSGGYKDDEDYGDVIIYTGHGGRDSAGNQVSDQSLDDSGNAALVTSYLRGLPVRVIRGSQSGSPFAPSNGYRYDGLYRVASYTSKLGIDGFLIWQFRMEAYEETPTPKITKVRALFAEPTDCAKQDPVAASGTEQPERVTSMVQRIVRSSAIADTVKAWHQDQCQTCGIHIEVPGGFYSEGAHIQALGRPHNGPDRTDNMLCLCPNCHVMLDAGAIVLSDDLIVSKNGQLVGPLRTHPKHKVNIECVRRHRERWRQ

T2: Tbis1 (Thermobispora bispora DSM 43833, UniProt D6YAC6 2-309)
T2 sequence: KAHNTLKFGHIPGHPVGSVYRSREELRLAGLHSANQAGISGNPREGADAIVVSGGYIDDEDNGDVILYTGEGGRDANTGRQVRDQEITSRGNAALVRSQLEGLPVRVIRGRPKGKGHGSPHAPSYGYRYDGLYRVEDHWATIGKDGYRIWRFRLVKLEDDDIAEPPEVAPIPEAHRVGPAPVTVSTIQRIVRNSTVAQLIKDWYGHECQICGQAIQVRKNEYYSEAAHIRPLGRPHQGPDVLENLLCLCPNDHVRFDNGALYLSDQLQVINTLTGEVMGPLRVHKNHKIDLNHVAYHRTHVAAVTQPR


Tests used:
Sco5333 = molecular target: T1, Sco5333; test: EMSA
Tbis1 = molecular target: T2, Tbis1; test: EMSA
SEC = molecular target: the molecule itself; test: SEC

Row | Binder | binding result (Sco5333) | other results
1 | 55ntDcm2 fully methylated (55nt-5/7) (dsDNA, 5mC at strand 1 pos 27 and strand 2 pos 27) DNA 1: ACTATAAAGATACCAGGCGTTTCCCCCTGGAAGCTCCCTCGTGCGCTCTCCTGTT DNA 2: AACAGGAGAGCGCACGAGGGAGCTTCCAGGGGGAAACGCCTGGTATCTTTATAGT | binds | 
2 | 55ntDcm2 non-methylated (55nt-6/8) (dsDNA) DNA 1: ACTATAAAGATACCAGGCGTTTCCCCCTGGAAGCTCCCTCGTGCGCTCTCCTGTT DNA 2: AACAGGAGAGCGCACGAGGGAGCTTCCAGGGGGAAACGCCTGGTATCTTTATAGT | no binding | 
3 | 55ntDcm2 top methylated (55nt-5/8) (dsDNA, 5mC at strand 1 pos 27) DNA 1: ACTATAAAGATACCAGGCGTTTCCCCCTGGAAGCTCCCTCGTGCGCTCTCCTGTT DNA 2: AACAGGAGAGCGCACGAGGGAGCTTCCAGGGGGAAACGCCTGGTATCTTTATAGT | binds | 
4 | 55ntDcm2 bottom methylated (55nt-6/7) (dsDNA, 5mC at strand 2 pos 27) DNA 1: ACTATAAAGATACCAGGCGTTTCCCCCTGGAAGCTCCCTCGTGCGCTCTCCTGTT DNA 2: AACAGGAGAGCGCACGAGGGAGCTTCCAGGGGGAAACGCCTGGTATCTTTATAGT | binds | 
5 | 56nt top methylated (56nt-1/4) (dsDNA, 5mC at strand 1 pos 31) DNA 1: CGGCGTTTCCGGGTTCCATAGGCTCCGCTCCGGCCTCTGATGACCAGGGCATCACA DNA 2: TGTGATGCCCTGGTCATCAGAGGCCGGAGCGGAGCCTATGGAACCCGGAAACGCCG |  | binding result (Tbis1): binds
6 | 56nt bottom methylated (56nt-2/3) (dsDNA, 5mC at strand 2 pos 25 (Table S3; methods print 24)) DNA 1: CGGCGTTTCCGGGTTCCATAGGCTCCGCTCCGGCCTCTGATGACCAGGGCATCACA DNA 2: TGTGATGCCCTGGTCATCAGAGGCCGGAGCGGAGCCTATGGAACCCGGAAACGCCG |  | binding result (Tbis1): binds
7 | 56nt non-methylated (56nt-2/4) (dsDNA) DNA 1: CGGCGTTTCCGGGTTCCATAGGCTCCGCTCCGGCCTCTGATGACCAGGGCATCACA DNA 2: TGTGATGCCCTGGTCATCAGAGGCCGGAGCGGAGCCTATGGAACCCGGAAACGCCG |  | binding result (Tbis1): no binding
8 | 55ntDcm1 non-methylated (55nt-2/4) (dsDNA) DNA 1: GAAACCCGACAGGACTATAAAGATACCAGGCGTTTCCCCCTGGAAGCTCCCTCGT DNA 2: ACGAGGGAGCTTCCAGGGGGAAACGCCTGGTATCTTTATAGTCCTGTCGGGTTTC | no binding | 
9 | 55ntDcm1 fully methylated (55nt-1/3) (dsDNA, 5mC at strand 1 pos 27 and strand 2 pos 27) DNA 1: GAAACCCGACAGGACTATAAAGATACCAGGCGTTTCCCCCTGGAAGCTCCCTCGT DNA 2: ACGAGGGAGCTTCCAGGGGGAAACGCCTGGTATCTTTATAGTCCTGTCGGGTTTC | binds | 
10 | 55ntDcm1 AmCAGG top (55nt-13/16) (dsDNA, 5mC at strand 1 pos 27) DNA 1: GAAACCCGACAGGACTATAAAGATAACAGGCGTTTCCCCCTGGAAGCTCCCTCGT DNA 2: ACGAGGGAGCTTCCAGGGGGAAACGCCTGTTATCTTTATAGTCCTGTCGGGTTTC | binds | 
11 | 55ntDcm1 TmCAGG bottom (55nt-18/19) (dsDNA, 5mC at strand 2 pos 27) DNA 1: GAAACCCGACAGGACTATAAAGATATCAGGCGTTTCCCCCTGGAAGCTCCCTCGT DNA 2: ACGAGGGAGCTTCCAGGGGGAAACGCCTGATATCTTTATAGTCCTGTCGGGTTTC | binds | 
12 | 55ntDcm1 CmCCGG bottom (55nt-26/27) (dsDNA, 5mC at strand 2 pos 27) DNA 1: GAAACCCGACAGGACTATAAAGATACCCGGCGTTTCCCCCTGGAAGCTCCCTCGT DNA 2: ACGAGGGAGCTTCCAGGGGGAAACGCCGGGTATCTTTATAGTCCTGTCGGGTTTC | binds | 
13 | 55ntDcm1 CmCGGG full (55nt-29/31) (dsDNA, 5mC at strand 1 pos 27 and strand 2 pos 27) DNA 1: GAAACCCGACAGGACTATAAAGATACCGGGCGTTTCCCCCTGGAAGCTCCCTCGT DNA 2: ACGAGGGAGCTTCCAGGGGGAAACGCCCGGTATCTTTATAGTCCTGTCGGGTTTC | binds | 
14 | 55ntDcm1 GmCAGG full (55nt-9/11) (dsDNA, 5mC at strand 1 pos 27 and strand 2 pos 27) DNA 1: GAAACCCGACAGGACTATAAAGATAGCAGGCGTTTCCCCCTGGAAGCTCCCTCGT DNA 2: ACGAGGGAGCTTCCAGGGGGAAACGCCTGCTATCTTTATAGTCCTGTCGGGTTTC | binds | 
15 | 55ntDcm1 CmCGGG bottom (55nt-30/31) (dsDNA, 5mC at strand 2 pos 27) DNA 1: GAAACCCGACAGGACTATAAAGATACCGGGCGTTTCCCCCTGGAAGCTCCCTCGT DNA 2: ACGAGGGAGCTTCCAGGGGGAAACGCCCGGTATCTTTATAGTCCTGTCGGGTTTC | binds | 
16 | 55ntDcm1 top methylated (55nt-1/4) (dsDNA, 5mC at strand 1 pos 27) DNA 1: GAAACCCGACAGGACTATAAAGATACCAGGCGTTTCCCCCTGGAAGCTCCCTCGT DNA 2: ACGAGGGAGCTTCCAGGGGGAAACGCCTGGTATCTTTATAGTCCTGTCGGGTTTC | binds | 
17 | 55ntDcm1 CmCGGG top (55nt-29/32) (dsDNA, 5mC at strand 1 pos 27) DNA 1: GAAACCCGACAGGACTATAAAGATACCGGGCGTTTCCCCCTGGAAGCTCCCTCGT DNA 2: ACGAGGGAGCTTCCAGGGGGAAACGCCCGGTATCTTTATAGTCCTGTCGGGTTTC | binds | 
18 | 55ntDcm1 CmCTGG top (55nt-21/24) (dsDNA, 5mC at strand 1 pos 27) DNA 1: GAAACCCGACAGGACTATAAAGATACCTGGCGTTTCCCCCTGGAAGCTCCCTCGT DNA 2: ACGAGGGAGCTTCCAGGGGGAAACGCCAGGTATCTTTATAGTCCTGTCGGGTTTC | binds | 
19 | 55ntDcm1 AmCAGG bottom (55nt-14/15) (dsDNA, 5mC at strand 2 pos 27) DNA 1: GAAACCCGACAGGACTATAAAGATAACAGGCGTTTCCCCCTGGAAGCTCCCTCGT DNA 2: ACGAGGGAGCTTCCAGGGGGAAACGCCTGTTATCTTTATAGTCCTGTCGGGTTTC | binds | 
20 | 55ntDcm1 CmCCGG full (55nt-25/27) (dsDNA, 5mC at strand 1 pos 27 and strand 2 pos 27) DNA 1: GAAACCCGACAGGACTATAAAGATACCCGGCGTTTCCCCCTGGAAGCTCCCTCGT DNA 2: ACGAGGGAGCTTCCAGGGGGAAACGCCGGGTATCTTTATAGTCCTGTCGGGTTTC | binds | 
21 | 55ntDcm1 CmCTGG bottom (55nt-22/23) (dsDNA, 5mC at strand 2 pos 27) DNA 1: GAAACCCGACAGGACTATAAAGATACCTGGCGTTTCCCCCTGGAAGCTCCCTCGT DNA 2: ACGAGGGAGCTTCCAGGGGGAAACGCCAGGTATCTTTATAGTCCTGTCGGGTTTC | binds | 
22 | 55ntDcm1 CmCTGG full (55nt-21/23) (dsDNA, 5mC at strand 1 pos 27 and strand 2 pos 27) DNA 1: GAAACCCGACAGGACTATAAAGATACCTGGCGTTTCCCCCTGGAAGCTCCCTCGT DNA 2: ACGAGGGAGCTTCCAGGGGGAAACGCCAGGTATCTTTATAGTCCTGTCGGGTTTC | binds | 
23 | 55ntDcm1 bottom methylated (55nt-2/3) (dsDNA, 5mC at strand 2 pos 27) DNA 1: GAAACCCGACAGGACTATAAAGATACCAGGCGTTTCCCCCTGGAAGCTCCCTCGT DNA 2: ACGAGGGAGCTTCCAGGGGGAAACGCCTGGTATCTTTATAGTCCTGTCGGGTTTC | binds | 
24 | 55ntDcm1 TmCAGG top (55nt-17/20) (dsDNA, 5mC at strand 1 pos 27) DNA 1: GAAACCCGACAGGACTATAAAGATATCAGGCGTTTCCCCCTGGAAGCTCCCTCGT DNA 2: ACGAGGGAGCTTCCAGGGGGAAACGCCTGATATCTTTATAGTCCTGTCGGGTTTC | binds | 
25 | 55ntDcm1 AmCAGG full (55nt-13/15) (dsDNA, 5mC at strand 1 pos 27 and strand 2 pos 27) DNA 1: GAAACCCGACAGGACTATAAAGATAACAGGCGTTTCCCCCTGGAAGCTCCCTCGT DNA 2: ACGAGGGAGCTTCCAGGGGGAAACGCCTGTTATCTTTATAGTCCTGTCGGGTTTC | binds | 
26 | 55ntDcm1 GmCAGG bottom (55nt-10/11) (dsDNA, 5mC at strand 2 pos 27) DNA 1: GAAACCCGACAGGACTATAAAGATAGCAGGCGTTTCCCCCTGGAAGCTCCCTCGT DNA 2: ACGAGGGAGCTTCCAGGGGGAAACGCCTGCTATCTTTATAGTCCTGTCGGGTTTC | binds | 
27 | 55ntDcm1 GmCAGG top (55nt-9/12) (dsDNA, 5mC at strand 1 pos 27) DNA 1: GAAACCCGACAGGACTATAAAGATAGCAGGCGTTTCCCCCTGGAAGCTCCCTCGT DNA 2: ACGAGGGAGCTTCCAGGGGGAAACGCCTGCTATCTTTATAGTCCTGTCGGGTTTC | binds | 
28 | 55ntDcm1 CmCCGG top (55nt-25/28) (dsDNA, 5mC at strand 1 pos 27) DNA 1: GAAACCCGACAGGACTATAAAGATACCCGGCGTTTCCCCCTGGAAGCTCCCTCGT DNA 2: ACGAGGGAGCTTCCAGGGGGAAACGCCGGGTATCTTTATAGTCCTGTCGGGTTTC | binds | 
29 | 55ntDcm1 TmCAGG full (55nt-17/19) (dsDNA, 5mC at strand 1 pos 27 and strand 2 pos 27) DNA 1: GAAACCCGACAGGACTATAAAGATATCAGGCGTTTCCCCCTGGAAGCTCCCTCGT DNA 2: ACGAGGGAGCTTCCAGGGGGAAACGCCTGATATCTTTATAGTCCTGTCGGGTTTC | binds | 
30 | Sco5333 (enzyme, Streptomyces coelicolor, UniProt Q9ADD4 1-301, looked up) MIGEIPGVAAGQPYNSRRLAHEAGVHRPLQAGICGTKATGAESIVVSGGYKDDEDYGDVIIYTGHGGRDSAGNQVSDQSLDDSGNAALVTSYLRGLPVRVIRGSQSGSPFAPSNGYRYDGLYRVASYTSKLGIDGFLIWQFRMEAYEETPTPKITKVRALFAEPTDCAKQDPVAASGTEQPERVTSMVQRIVRSSAIADTVKAWHQDQCQTCGIHIEVPGGFYSEGAHIQALGRPHNGPDRTDNMLCLCPNCHVMLDAGAIVLSDDLIVSKNGQLVGPLRTHPKHKVNIECVRRHRERWRQ |  | stoichiometry N (SEC): 2
